In patent US20170192009A1:

Columns and labels:
[1] = biological target: GFP-hIL6 fusion protein (N-terminal 6x His-tag, mGFP, gs linker, human interleukin-6), purified (human); experiment: flow cytometry of permeabilized E. coli IT cells displaying the binder-mRFP-CBD on inclusion bodies, treated with GFP-IL6; GFP channel
[2] = biological target: GFP-hIL6 fusion protein (N-terminal 6x His-tag, mGFP, gs linker, human interleukin-6), purified (human); experiment: flow cytometry of permeabilized IT cells treated with GFP-IL6
[3] = biological target: GFP-hIL6 fusion protein (N-terminal 6x His-tag, mGFP, gs linker, human interleukin-6), purified (human); experiment: flow cytometry of permeabilized IT cells, treated with mGFP-IL6; GFP channel [panel IL-6]
sfGFP = experiment: flow cytometry of permeabilized IT cells, treated with sfGFP; GFP channel [panel sfGFP]

| Substance | GFP fluorescence value [1] | GFP fluorescence [2] | GFP fluorescence value [3] | GFP fluorescence value (sfGFP) |
| --- | --- | --- | --- | --- |
| InVLR5c-mRFP-CBD fusion protein (In-VLR5c repebody fused to mRFP and family II CBD, displayed on inclusion bodies in permeabilized E. coli IT cells) (designed binder) | 17 | 10 |  |  |
| negative control (f) |  |  | 26.2 | 15.2 |
